Patent US20200317768A1 (published 2020)

T1: cynomolgus monkey FcγRIIa3 extracellular domain with C-terminal His-tag (cynomolgus monkey)
T1 construct: Expressed in FreeStyle 293 cells and purified; also called cyno FcγRIIa3; cynoFcgRIIa3; not shown: C-terminal His-tag
T1 chain: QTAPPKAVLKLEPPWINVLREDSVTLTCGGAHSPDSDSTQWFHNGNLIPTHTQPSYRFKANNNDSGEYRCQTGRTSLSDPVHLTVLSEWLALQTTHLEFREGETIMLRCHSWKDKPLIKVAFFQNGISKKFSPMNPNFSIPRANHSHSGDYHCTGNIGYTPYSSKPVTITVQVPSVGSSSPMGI

T2: cynomolgus monkey FcγRIIb extracellular domain with C-terminal His-tag (cynomolgus monkey)
T2 construct: Expressed in FreeStyle 293 cells and purified; also called cyno FcγRIIb; cynoFcγRIIb; not shown: C-terminal His-tag
T2 chain: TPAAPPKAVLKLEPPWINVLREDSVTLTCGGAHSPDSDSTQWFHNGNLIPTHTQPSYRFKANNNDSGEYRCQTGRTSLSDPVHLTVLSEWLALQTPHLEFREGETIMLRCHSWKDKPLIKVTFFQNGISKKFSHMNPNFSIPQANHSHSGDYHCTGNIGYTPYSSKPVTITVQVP

T3: human FcγRIIaH extracellular domain, His-tagged (human, UniProt P12318 34-217)
T3 construct: also called human FcgRIIaH; FcγRIIa (type H); not shown: His-tag added to the C-terminus
T3 sequence: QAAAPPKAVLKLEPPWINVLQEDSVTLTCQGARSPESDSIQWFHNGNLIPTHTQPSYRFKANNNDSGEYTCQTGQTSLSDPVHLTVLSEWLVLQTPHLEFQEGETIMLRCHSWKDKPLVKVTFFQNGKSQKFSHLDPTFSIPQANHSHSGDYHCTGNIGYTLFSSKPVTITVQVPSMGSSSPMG

T4: cynomolgus monkey FcγRIIb extracellular domain, His-tagged (cynomolgus monkey)
T4 construct: also called cyno FcgRIIb; cynoFcγRIIb; not shown: His-tag added to the C-terminus
T4 chain: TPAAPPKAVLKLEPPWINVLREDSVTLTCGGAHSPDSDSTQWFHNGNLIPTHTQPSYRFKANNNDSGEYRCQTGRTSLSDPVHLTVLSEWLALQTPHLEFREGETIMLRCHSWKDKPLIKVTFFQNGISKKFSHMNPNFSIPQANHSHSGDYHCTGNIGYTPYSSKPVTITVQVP

T5: human FcγRIIb extracellular domain, His-tagged (human, UniProt P31994 43-217)
T5 construct: also called human FcgRIIb; not shown: His-tag added to the C-terminus
T5 sequence: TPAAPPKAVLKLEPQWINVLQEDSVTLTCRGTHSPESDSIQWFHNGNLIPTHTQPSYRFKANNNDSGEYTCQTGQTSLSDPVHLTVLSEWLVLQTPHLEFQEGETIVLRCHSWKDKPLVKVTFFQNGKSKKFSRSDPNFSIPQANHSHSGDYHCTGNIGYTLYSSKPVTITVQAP

T6: human FcγRIIaR extracellular domain, His-tagged (human, UniProt P12318 34-217)
T6 construct: also called human FcgRIIaR; FcγRIIa (type R); not shown: His-tag added to the C-terminus
T6 chain: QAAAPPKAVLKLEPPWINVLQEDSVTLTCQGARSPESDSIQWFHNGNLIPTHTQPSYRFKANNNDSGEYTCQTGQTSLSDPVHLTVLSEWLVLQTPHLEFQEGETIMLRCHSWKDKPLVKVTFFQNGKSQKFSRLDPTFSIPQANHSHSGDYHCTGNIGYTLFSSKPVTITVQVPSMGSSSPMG

T7: cynomolgus monkey FcγRIIa3 extracellular domain, His-tagged (cynomolgus monkey)
T7 construct: also called cyno FcgRIIa3; cynoFcγRIIa3; not shown: His-tag added to the C-terminus
T7 chain: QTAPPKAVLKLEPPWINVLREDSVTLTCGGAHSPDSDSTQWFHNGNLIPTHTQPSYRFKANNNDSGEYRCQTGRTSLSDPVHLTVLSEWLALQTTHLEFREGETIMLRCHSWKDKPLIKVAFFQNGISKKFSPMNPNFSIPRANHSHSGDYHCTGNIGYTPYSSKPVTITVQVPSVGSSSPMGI


What was measured:
[1] = molecular target: T1, cynomolgus monkey FcγRIIa3 …; assay: SPR (Biacore); KD of SG1 divided by KD of the variant for this FcgR
[2] = molecular target: T8, human FcγRIIIaV extracellular domain with C-terminal His-tag (human, UniProt P08637 17-208); assay: as above
T8 construct: Expressed in FreeStyle 293 cells and purified; also called FcgRIIIaV; not shown: C-terminal His-tag
T8 sequence (P08637 17-208 F176V): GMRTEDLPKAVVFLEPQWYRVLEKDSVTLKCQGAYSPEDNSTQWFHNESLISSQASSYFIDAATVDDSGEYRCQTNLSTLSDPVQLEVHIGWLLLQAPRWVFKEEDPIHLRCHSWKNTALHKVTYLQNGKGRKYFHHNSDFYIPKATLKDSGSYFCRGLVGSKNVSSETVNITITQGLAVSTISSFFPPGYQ

[3] = molecular target: T2, cynomolgus monkey FcγRIIb extracellular …; assay: as above
[4] = molecular target: T3, human FcγRIIaH extracellular domain, …; assay: SPR; KD of SG1 divided by KD of the variant
Procedure: (§1) Regarding such interactions, KD values were calculated using the following 1:1 binding model described in BIACORE® T100 Software Handbook BR1006-48 Edition AE.
(§2) The behavior of interacting molecules according to the 1:1 binding model on BIACORE® can be described by Equation 1: Req=C·R max/(KD+C)+RI, wherein, Req is a plot of steady-state binding levels to analyte concentration. C is concentration, RI is bulk refractive index contribution in the sample, and Rmax is analyte binding capacity of the surface. When this equation is rearranged, KD can be expressed as Equation 2: KD=C·Rmax/(Req−RI)−C. KD can be calculated by substituting the values of Rmax, RI, and C into Equation 1 or Equation 2. From the current measurement conditions, RI=0, C=2 μmol/L can be used.
(§3) The resultant variants were expressed using M103202L889-SK1 as light chain and their affinity to human and cynoFcγRs were evaluated (Table 21).

[5] = molecular target: T4, cynomolgus monkey FcγRIIb extracellular …; assay: SPR; KD of SG1 divided by KD of the variant
Procedure: as §1, §2, §3

[6] = molecular target: T9, human FcγRIIIaV extracellular domain, His-tagged (human, UniProt P08637 17-208); assay: SPR; KD of SG1 divided by KD of the variant
T9 construct: also called human FcgRIIIaV; not shown: His-tag added to the C-terminus
T9 sequence (P08637 17-208 F176V): as above
Procedure: as §1, §2, §3

[7] = molecular target: T5, human FcγRIIb extracellular domain, …; assay: SPR; KD of SG1 divided by KD of the variant
Procedure: as §1, §2, §3

[8] = molecular target: T6, human FcγRIIaR extracellular domain, …; assay: SPR; KD of SG1 divided by KD of the variant
Procedure: as §1, §2, §3

[9] = molecular target: T7, cynomolgus monkey FcγRIIa3 …; assay: SPR; KD of SG1 divided by KD of the variant
Procedure: as §1, §2, §3
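Further: relative to parent M103205H795-SG1 carrying the SG1 human heavy chain constant region.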

Row | Binder | KD fold (SG1 = 1) [1] | KD fold (SG1 = 1) [2] | KD fold (SG1 = 1) [3] | KD fold (SG1 = 1) [4] | KD fold (SG1 = 1) [5] | KD fold (SG1 = 1) [6] | KD fold (SG1 = 1) [7] | KD fold (SG1 = 1) [8] | KD fold (SG1 = 1) [9]
1 | M103205H795-MY170 / M103202L889-SK1 (antibody, human IgG1, kappa, Position 396 variant derived from MY052, expressed with M103202L889-SK1 as light chain) heavy: QVTLKESGPVLVKPTETLTLTCTVSGIDLSHDDISWVRQAPGKGLEWVGIISYAGSTYYASWAKGRLTISKDTSKNQVVLTMTNMDPVDTATYYCARGVPAYSHGGDLWGQGTLVTVSSASTKGPSVFPLAPSSKSTSGGTAALGCLVKDYFPEPVTVSWNSGALTSGVHTFPAVLQSSGLYSLSSVVTVPSSSLGTQTYICNVNHKPSNTKVDKKVEPKSCDKTHTCPPCPAPELLNGPSVFLFPPKPKDTLMISRTPEVTCVVVDVSEEDPEVKFNWYVDGVEVHNAKTKPREEQYNSTYRVVSVLTVLHQDWLNGKEYKCKVSNKALPAPIEKTISKAKGQPREPQVYTLPPSREEMTKNQVSLTCLVKGFYPSDIAVEWESNGQPENNYKTTPEVLDSDGSFFLYSKLTVDKSRWQQGNVFSCSVMHEALHNHYTQKSLSLSP light: DIVMTQSPATLSLSPGERATLSCTSSQSVYHANWLSWFQQKPGQPPKLLIYWASTLAYGVPSRFSGSGSGTDFTLTISSLQPEDAATYYCAGGYGGGRYAFGQGTKVEIKRTVAAPSVFIFPPSDEQLKSGTASVVCLLNNFYPREAKVQWKVDNALQSGNSQESVTEQDSKDSTYSLSSTLTLSKADYEKHKVYACEVTHQGLSSPVTKSFNRGEC | 1.4 fold | 0.13 fold | 1.5 fold | – | – | – | – | – | –
2 | MS1032LO06-SG1 (M103205H795-SG1/M103202L889-SK1) (antibody, human IgG1, kappa, Anti-latent myostatin antibody; Parent of the Fc variants; copies: 2 + 2) heavy: not shown light: DIVMTQSPATLSLSPGERATLSCTSSQSVYHANWLSWFQQKPGQPPKLLIYWASTLAYGVPSRFSGSGSGTDFTLTISSLQPEDAATYYCAGGYGGGRYAFGQGTKVEIKRTVAAPSVFIFPPSDEQLKSGTASVVCLLNNFYPREAKVQWKVDNALQSGNSQESVTEQDSKDSTYSLSSTLTLSKADYEKHKVYACEVTHQGLSSPVTKSFNRGEC | – | – | – | 1 fold | 1 fold | 1 fold | 1 fold | 1 fold | 1 fold
3 | M103205H795-MY201/M103202L889-SK1 (antibody, human IgG1, kappa, Fc variant G236N/H268D/A330K (EU numbering) of SG1; also called MS1032LO06-MY201; copies: 2 + 2) heavy: QVTLKESGPVLVKPTETLTLTCTVSGIDLSHDDISWVRQAPGKGLEWVGIISYAGSTYYASWAKGRLTISKDTSKNQVVLTMTNMDPVDTATYYCARGVPAYSHGGDLWGQGTLVTVSSASTKGPSVFPLAPSSKSTSGGTAALGCLVKDYFPEPVTVSWNSGALTSGVHTFPAVLQSSGLYSLSSVVTVPSSSLGTQTYICNVNHKPSNTKVDKKVEPKSCDKTHTCPPCPAPELLNGPSVFLFPPKPKDTLMISRTPEVTCVVVDVSDEDPEVKFNWYVDGVEVHNAKTKPREEQYNSTYRVVSVLTVLHQDWLNGKEYKCKVSNKALPKPIEKTISKAKGQPREPQVYTLPPSREEMTKNQVSLTCLVKGFYPSDIAVEWESNGQPENNYKTTPPVLDSDGSFFLYSKLTVDKSRWQQGNVFSCSVMHEALHNHYTQKSLSLSP light: DIVMTQSPATLSLSPGERATLSCTSSQSVYHANWLSWFQQKPGQPPKLLIYWASTLAYGVPSRFSGSGSGTDFTLTISSLQPEDAATYYCAGGYGGGRYAFGQGTKVEIKRTVAAPSVFIFPPSDEQLKSGTASVVCLLNNFYPREAKVQWKVDNALQSGNSQESVTEQDSKDSTYSLSSTLTLSKADYEKHKVYACEVTHQGLSSPVTKSFNRGEC | – | – | – | 0.8 fold | 4.2 fold | 0.03 fold | 4.2 fold | 0.6 fold | 4.4 fold
4 | M103205H795-MY171 / M103202L889-SK1 (antibody, human IgG1, kappa, Position 396 variant derived from MY052, expressed with M103202L889-SK1 as light chain) heavy: QVTLKESGPVLVKPTETLTLTCTVSGIDLSHDDISWVRQAPGKGLEWVGIISYAGSTYYASWAKGRLTISKDTSKNQVVLTMTNMDPVDTATYYCARGVPAYSHGGDLWGQGTLVTVSSASTKGPSVFPLAPSSKSTSGGTAALGCLVKDYFPEPVTVSWNSGALTSGVHTFPAVLQSSGLYSLSSVVTVPSSSLGTQTYICNVNHKPSNTKVDKKVEPKSCDKTHTCPPCPAPELLNGPSVFLFPPKPKDTLMISRTPEVTCVVVDVSEEDPEVKFNWYVDGVEVHNAKTKPREEQYNSTYRVVSVLTVLHQDWLNGKEYKCKVSNKALPAPIEKTISKAKGQPREPQVYTLPPSREEMTKNQVSLTCLVKGFYPSDIAVEWESNGQPENNYKTTPFVLDSDGSFFLYSKLTVDKSRWQQGNVFSCSVMHEALHNHYTQKSLSLSP light: DIVMTQSPATLSLSPGERATLSCTSSQSVYHANWLSWFQQKPGQPPKLLIYWASTLAYGVPSRFSGSGSGTDFTLTISSLQPEDAATYYCAGGYGGGRYAFGQGTKVEIKRTVAAPSVFIFPPSDEQLKSGTASVVCLLNNFYPREAKVQWKVDNALQSGNSQESVTEQDSKDSTYSLSSTLTLSKADYEKHKVYACEVTHQGLSSPVTKSFNRGEC | 1.8 fold | 0.14 fold | 1.8 fold | – | – | – | – | – | –
5 | M103205H795-MY260/M103202L889-SK1 (antibody, human IgG1, kappa, copies: 2 + 2) heavy: QVTLKESGPVLVKPTETLTLTCTVSGIDLSHDDISWVRQAPGKGLEWVGIISYAGSTYYASWAKGRLTISKDTSKNQVVLTMTNMDPVDTATYYCARGVPAYSHGGDLWGQGTLVTVSSASTKGPSVFPLAPSSKSTSGGTAALGCLVKDYFPEPVTVSWNSGALTSGVHTFPAVLQSSGLYSLSSVVTVPSSSLGTQTYICNVNHKPSNTKVDKKVEPKSCDKTHTCPPCPAPELLMGPSVFLFPPKPKDTLMISRTPEVTCVVVDVSDEDPEVKFNWYVDGVEVHNAKTKPREEQYNSTYRVVSVLTVLHQDWLNGKEYKCKVSNKALPKPIEKTISKAKGQPREPQVYTLPPSREEMTKNQVSLTCLVKGFYPSDIAVEWESNGQPENNYKTTPPVLDSDGSFFLYSKLTVDKSRWQQGNVFSCSVMHEALHNHYTQKSLSLSP light: DIVMTQSPATLSLSPGERATLSCTSSQSVYHANWLSWFQQKPGQPPKLLIYWASTLAYGVPSRFSGSGSGTDFTLTISSLQPEDAATYYCAGGYGGGRYAFGQGTKVEIKRTVAAPSVFIFPPSDEQLKSGTASVVCLLNNFYPREAKVQWKVDNALQSGNSQESVTEQDSKDSTYSLSSTLTLSKADYEKHKVYACEVTHQGLSSPVTKSFNRGEC | – | – | – | 0.8 fold | 1.1 fold | 0.27 fold | 0.8 fold | 0.6 fold | 1.2 fold
